Measurements taken from patent US20110262445A1 (CEPHALON AUSTRALIA, published 2011).

T1: human IL-12 (human, UniProt P29460 23-328; P29459 23-219)
T1 construct: Recombinant (Peprotech); FLAG-tagged IL-12 in the flow cytometry assays, biotinylated in the IL-12Rβ2 assay; also called hIL-12
T1 sequence 1: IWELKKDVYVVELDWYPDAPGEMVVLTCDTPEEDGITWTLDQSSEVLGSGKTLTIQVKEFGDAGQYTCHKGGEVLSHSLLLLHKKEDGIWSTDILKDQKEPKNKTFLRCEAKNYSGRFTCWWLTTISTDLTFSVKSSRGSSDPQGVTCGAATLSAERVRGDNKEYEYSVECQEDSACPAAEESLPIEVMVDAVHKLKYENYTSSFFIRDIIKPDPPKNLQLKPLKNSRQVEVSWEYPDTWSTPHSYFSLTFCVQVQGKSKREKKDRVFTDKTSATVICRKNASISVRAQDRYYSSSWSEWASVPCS
T1 sequence 2: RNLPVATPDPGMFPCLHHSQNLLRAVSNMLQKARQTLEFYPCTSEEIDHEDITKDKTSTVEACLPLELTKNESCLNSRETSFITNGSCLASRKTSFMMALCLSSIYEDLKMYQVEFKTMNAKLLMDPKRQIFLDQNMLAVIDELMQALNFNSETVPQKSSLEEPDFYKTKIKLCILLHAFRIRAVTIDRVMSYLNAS

T2: human IL-23 (human, UniProt P29460 23-328; Q9NPF7 20-189)
T2 construct: Recombinant (Ebioscience); HIS-tagged in flow cytometry, biotinylated in some assays; also called hIL-23; rhIL-23
T2 sequence 1: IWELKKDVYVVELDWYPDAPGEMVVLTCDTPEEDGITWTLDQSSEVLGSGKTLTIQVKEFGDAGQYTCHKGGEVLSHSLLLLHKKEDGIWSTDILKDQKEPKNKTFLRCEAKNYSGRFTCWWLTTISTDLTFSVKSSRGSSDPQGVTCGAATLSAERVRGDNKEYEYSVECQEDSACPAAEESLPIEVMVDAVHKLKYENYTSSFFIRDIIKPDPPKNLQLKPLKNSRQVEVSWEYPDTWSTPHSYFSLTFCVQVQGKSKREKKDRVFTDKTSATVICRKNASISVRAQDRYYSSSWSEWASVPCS
T2 sequence 2: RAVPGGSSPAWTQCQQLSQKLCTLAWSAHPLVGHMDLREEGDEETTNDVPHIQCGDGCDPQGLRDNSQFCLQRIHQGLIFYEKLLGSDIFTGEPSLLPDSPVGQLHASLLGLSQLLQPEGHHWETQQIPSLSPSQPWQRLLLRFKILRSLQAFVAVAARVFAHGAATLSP


Legend:
[1] = molecular target: T1, human IL-12; test: SPR, purified scFv captured via FLAG
Description: (§1) A number of the scFv variants presented in TABLE 4 were selected for full characterization of binding kinetics, encompassing a broad range of mutation profiles and binding affinities. Large-scale protein expressions were carried out for each scFv. The expressed scFvs were purified as monomeric proteins and tested for binding against IL-12 and IL-23 by SPR (TABLE 5).
(§2) Purified scFvs were subjected to full kinetic characterization using a BIAcore T100 biosensor (GE Healthcare). Approximately 10,000 RU of the proprietry FLAG-specific capture molecule was immobilized on a CM5 Series S Sensor chip, using standard amine coupling chemistry in flow cells (FC) 1 and FC2 (or alternatively FC3 and FC4) of the BIAcore T100 Biosensor. The running buffer used was HBS-EP+ (BIAcore) and interactions measured at 30° C. or 35° C. to promote differentiation of scFvs with very similiar kd values. Peak purified FLAG-tagged scFvs (prepared as described in the previous paragraph) were diluted to 10 nM in running buffer, and captured on FC2 at a flow rate of 10 μl/min in order to capture 50 RU of scFv (typically 60 sec was sufficient to capture this level of tagged scFv). After an appropriate stabilization period, the target, IL-12 or IL-23, were passed over FC1 and FC2 at a flow rate of 60 μl/min at concentrations ranging from 81 nM to 0.13 nM (using a five-fold dilution of IL-12) and 81 nM to 1 nM (using a three-fold dilution of IL-23). The contact time for association was 180 sec and dissociation measured for 10 mins for the highest concentration and 300 sec for all other concentrations in the series. The sensorgram data from FC2 was subtracted from FC1 and a buffer only control. The curves were fitted using a 1:1 Langmuir equation to generate the kₐ, kd and KD values.

[2] = molecular target: T2, human IL-23; test: SPR, purified scFv captured via FLAG
Description: as §1, §2

[3] = molecular target: T2, human IL-23; test: SPR screen, crude scFv captured via FLAG
Description: Approximately 6500 individual scFvs recovered from the ribosome display reactions were expressed and screened for binding against IL-23 using a high-throughout SPR assay. The variants were ranked according to the kd and the best variants were sequenced at the nucleic acid level.
High-throughput SPR screening was conducted using a BIAcore A100 biosensor (GE Healthcare). Approximately 10 000 RU of the proprietary FLAG-specific capture molecule was immobilized on a CM5 Series S Sensor chip, using standard amine coupling chemistry on Spots 1 & 5 (outer spots) and 3,000RU to Spots 2 & 4 (inner spots) in each of the four flow cells of the BIAcore A100 Biosensor. The running buffer used was HBS-EP+ (BIAcore) and all interactions measured at 25° C. Crude periplasmic preparations of FLAG-tagged scFvs (prepared as described in the previous paragraph), were diluted two-fold in running buffer before capturing at a flow rate of 5u1/min for 60 sec. Approx. 100RU (on outer spots) and 50RU (on inner spots) of tagged scFv was captured. Following a 2 min stabilization period, IL-23 was passed over all spots of all four flow cells simultaneously at a flow rate of 30u1/min for 120 sec and dissociation monitored for 200 sec. Generated sensorgrams were referenced against the unmodified spot 3 of each flow cell, and fitted using a 1:1 Langmuir equation with R1 set to local to account for varying ligand densities to generate the kₐ, kd and KD values.

[4] = molecular target: T1, human IL-12; test: ELISA, coated IL-12
How it was run: (§3)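 Maxisorp plates were coated overnight at 4° C with cytokine at 1 μg/mL in carbonate buffer pH 9.6, then blocked for 1 hour at 25° C with 1% BSA in PBS. Antibody titrations were allowed to bind for 1 hour at 25° C and detected with goat anti-human IgG or anti-murine immunoglobulin HRP (1:2000, 1 hour), followed by TMB development stopped with 1M HCl. Binding is reported as absorbance. Readings were taken at 450 nm against a 620 nm reference.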

[5] = molecular target: T2, human IL-23; test: ELISA, coated IL-23
How it was run: as §3

| Kd [1] | koff [1] | kon [1] | Kd [2] | koff [2] | kon [2] | koff [3] | binding result [4] | binding result [5] | Binder |
| --- | --- | --- | --- | --- | --- | --- | --- | --- | --- |
| 0.35 nM | 0.00052 s⁻¹ | 1.5e+06 M⁻¹ s⁻¹ | 0.17 nM | 4.9e-05 s⁻¹ | 280000 M⁻¹ s⁻¹ | 0.00029 s⁻¹ | – | – | scFv AQ-G10 (scFv, scFv-80 variant: VH K12E, R66G; not shown: proprietary C-terminal FLAG tag) scFv: QVQLVQSGAEVEKPGASVKVSCKASGYTFTDYYLHWVRQAPGQGLEWMGWIDPENGDTEYAPKFQGGVTMTTDTSTSTAYMELRSLRSDDTAVYYCNANKELRYFDVWGQGTMVTVSSGGGGSGGGGSGGGGSEIVMTQSPATLSVSPGERATLSCRASQSISINLHWYQQKPGQAPRLLIYFASQSISGIPARFSGSGSGTEFTLTISSLQSEDFAVYYCQQSNSFPLTFGGGTKVEIKR |
| 0.12 nM | 0.00023 s⁻¹ | 2e+06 M⁻¹ s⁻¹ | 0.16 nM | 4.4e-05 s⁻¹ | 310000 M⁻¹ s⁻¹ | 0.00045 s⁻¹ | – | – | scFv BB-A9 (scFv, scFv-80 variant: VH T28A, T68S; not shown: proprietary C-terminal FLAG tag) scFv: QVQLVQSGAEVKKPGASVKVSCKASGYAFTDYYLHWVRQAPGQGLEWMGWIDPENGDTEYAPKFQGRVSMTTDTSTSTAYMELRSLRSDDTAVYYCNANKELRYFDVWGQGTMVTVSSGGGGSGGGGSGGGGSEIVMTQSPATLSVSPGERATLSCRASQSISINLHWYQQKPGQAPRLLIYFASQSISGIPARFSGSGSGTEFTLTISSLQSEDFAVYYCQQSNSFPLTFGGGTKVEIKR |
| 0.14 nM | 0.00031 s⁻¹ | 2.3e+06 M⁻¹ s⁻¹ | 0.15 nM | 5.5e-05 s⁻¹ | 360000 M⁻¹ s⁻¹ | 0.00036 s⁻¹ | – | – | scFv AX-G4 (scFv, scFv-80 variant: VL S26P; not shown: proprietary C-terminal FLAG tag) scFv: QVQLVQSGAEVKKPGASVKVSCKASGYTFTDYYLHWVRQAPGQGLEWMGWIDPENGDTEYAPKFQGRVTMTTDTSTSTAYMELRSLRSDDTAVYYCNANKELRYFDVWGQGTMVTVSSGGGGSGGGGSGGGGSEIVMTQSPATLSVSPGERATLSCRAPQSISINLHWYQQKPGQAPRLLIYFASQSISGIPARFSGSGSGTEFTLTISSLQSEDFAVYYCQQSNSFPLTFGGGTKVEIKR |
| 0.23 nM | 0.00044 s⁻¹ | 1.9e+06 M⁻¹ s⁻¹ | 0.13 nM | 4.1e-05 s⁻¹ | 320000 M⁻¹ s⁻¹ | 0.00026 s⁻¹ | – | – | scFv CR-B1 (scFv, scFv-80 variant: VH D85E; not shown: proprietary C-terminal FLAG tag) scFv: QVQLVQSGAEVKKPGASVKVSCKASGYTFTDYYLHWVRQAPGQGLEWMGWIDPENGDTEYAPKFQGRVTMTTDTSTSTAYMELRSLRSEDTAVYYCNANKELRYFDVWGQGTMVTVSSGGGGSGGGGSGGGGSEIVMTQSPATLSVSPGERATLSCRASQSISINLHWYQQKPGQAPRLLIYFASQSISGIPARFSGSGSGTEFTLTISSLQSEDFAVYYCQQSNSFPLTFGGGTKVEIKR |
| 0.11 nM | 0.00024 s⁻¹ | 2.1e+06 M⁻¹ s⁻¹ | 0.13 nM | 4.4e-05 s⁻¹ | 340000 M⁻¹ s⁻¹ | 0.00031 s⁻¹ | – | – | scFv AU-G9 (scFv, scFv-80 variant: VH Q43R; VL I55T; not shown: proprietary C-terminal FLAG tag) scFv: QVQLVQSGAEVKKPGASVKVSCKASGYTFTDYYLHWVRQAPGRGLEWMGWIDPENGDTEYAPKFQGRVTMTTDTSTSTAYMELRSLRSDDTAVYYCNANKELRYFDVWGQGTMVTVSSGGGGSGGGGSGGGGSEIVMTQSPATLSVSPGERATLSCRASQSISINLHWYQQKPGQAPRLLIYFASQSTSGIPARFSGSGSGTEFTLTISSLQSEDFAVYYCQQSNSFPLTFGGGTKVEIKR |
| 0.089 nM | 0.00018 s⁻¹ | 2e+06 M⁻¹ s⁻¹ | 0.098 nM | 3e-05 s⁻¹ | 310000 M⁻¹ s⁻¹ | 0.00028 s⁻¹ | – | – | scFv CE-B1 (scFv, scFv-80 variant: VH F29L; not shown: proprietary C-terminal FLAG tag) scFv: QVQLVQSGAEVKKPGASVKVSCKASGYTLTDYYLHWVRQAPGQGLEWMGWIDPENGDTEYAPKFQGRVTMTTDTSTSTAYMELRSLRSDDTAVYYCNANKELRYFDVWGQGTMVTVSSGGGGSGGGGSGGGGSEIVMTQSPATLSVSPGERATLSCRASQSISINLHWYQQKPGQAPRLLIYFASQSISGIPARFSGSGSGTEFTLTISSLQSEDFAVYYCQQSNSFPLTFGGGTKVEIKR |
| 0.2 nM | 0.00033 s⁻¹ | 1.6e+06 M⁻¹ s⁻¹ | 0.093 nM | 2.5e-05 s⁻¹ | 270000 M⁻¹ s⁻¹ | 0.00028 s⁻¹ | – | – | scFv AV-F11 (scFv, scFv-80 variant: VH S112P; VL I75T; not shown: proprietary C-terminal FLAG tag) scFv: QVQLVQSGAEVKKPGASVKVSCKASGYTFTDYYLHWVRQAPGQGLEWMGWIDPENGDTEYAPKFQGRVTMTTDTSTSTAYMELRSLRSDDTAVYYCNANKELRYFDVWGQGTMVTVPSGGGGSGGGGSGGGGSEIVMTQSPATLSVSPGERATLSCRASQSISINLHWYQQKPGQAPRLLIYFASQSISGIPARFSGSGSGTEFTLTTSSLQSEDFAVYYCQQSNSFPLTFGGGTKVEIKR |
| 0.12 nM | 0.00024 s⁻¹ | 2e+06 M⁻¹ s⁻¹ | 0.12 nM | 3.7e-05 s⁻¹ | 300000 M⁻¹ s⁻¹ | 0.00029 s⁻¹ | – | – | scFv BU-B1 (scFv, scFv-80 variant: VH L34M; not shown: proprietary C-terminal FLAG tag) scFv: QVQLVQSGAEVKKPGASVKVSCKASGYTFTDYYMHWVRQAPGQGLEWMGWIDPENGDTEYAPKFQGRVTMTTDTSTSTAYMELRSLRSDDTAVYYCNANKELRYFDVWGQGTMVTVSSGGGGSGGGGSGGGGSEIVMTQSPATLSVSPGERATLSCRASQSISINLHWYQQKPGQAPRLLIYFASQSISGIPARFSGSGSGTEFTLTISSLQSEDFAVYYCQQSNSFPLTFGGGTKVEIKR |
| – | – | – | – | – | – | – | binds | binds | Antibody 128 (antibody, human IgG1, kappa) heavy chain: not shown light chain: DIQMTQSPSSVSATVGDRVTITCRASQSISINLHWYQQKPGKAPKLLIYFASQSISGVPSRFSGSGSGTDFSLTINSLQPEDFATYYCQQSNSFPLTFGGGTKVEIKRTVAAPSVFIFPPSDEQLKSGTASVVCLLNNFYPREAKVQWKVDNALQSGNSQESVTEQDSKDSTYSLSSTLTLSKADYEKHKVYACEVTHQGLSSPVTKSFNRGEC |
| – | – | – | – | – | – | – | binds | binds | Antibody 130 (antibody, human IgG1, kappa) heavy: not shown light: DIQMTQSPSSVSASPGDRVTITCRASQSISINLHWYQQKPGKAPKLLIYFASQSISGVPSRFSGSGSGTDFSLTINSLQPEDFATYYCQQSNSFPLTFGGGTKVEIKRTVAAPSVFIFPPSDEQLKSGTASVVCLLNNFYPREAKVQWKVDNALQSGNSQESVTEQDSKDSTYSLSSTLTLSKADYEKHKVYACEVTHQGLSSPVTKSFNRGEC |
